T1: NCA expressed at the surface of MC38/NCA+ cells and granulocytes (UniProt P40199 35-320, limits assumed)
T1 construct: whole, on cells
T1 sequence (looked up): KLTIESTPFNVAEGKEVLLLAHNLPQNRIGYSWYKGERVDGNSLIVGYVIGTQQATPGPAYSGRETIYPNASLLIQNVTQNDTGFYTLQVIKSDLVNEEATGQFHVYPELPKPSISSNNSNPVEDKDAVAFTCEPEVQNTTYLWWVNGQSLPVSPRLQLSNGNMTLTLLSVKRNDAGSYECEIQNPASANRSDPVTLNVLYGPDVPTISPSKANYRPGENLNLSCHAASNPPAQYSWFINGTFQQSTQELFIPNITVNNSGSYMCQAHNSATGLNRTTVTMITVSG

T2: extracellular region of the human recombinant carcinoembryonary antigen (CEA) (human, UniProt P06731 35-676, limits assumed)
T2 construct: extracellular domain; The Biacore paragraph says only 'CEA'; also called rhCEA
T2 sequence (looked up): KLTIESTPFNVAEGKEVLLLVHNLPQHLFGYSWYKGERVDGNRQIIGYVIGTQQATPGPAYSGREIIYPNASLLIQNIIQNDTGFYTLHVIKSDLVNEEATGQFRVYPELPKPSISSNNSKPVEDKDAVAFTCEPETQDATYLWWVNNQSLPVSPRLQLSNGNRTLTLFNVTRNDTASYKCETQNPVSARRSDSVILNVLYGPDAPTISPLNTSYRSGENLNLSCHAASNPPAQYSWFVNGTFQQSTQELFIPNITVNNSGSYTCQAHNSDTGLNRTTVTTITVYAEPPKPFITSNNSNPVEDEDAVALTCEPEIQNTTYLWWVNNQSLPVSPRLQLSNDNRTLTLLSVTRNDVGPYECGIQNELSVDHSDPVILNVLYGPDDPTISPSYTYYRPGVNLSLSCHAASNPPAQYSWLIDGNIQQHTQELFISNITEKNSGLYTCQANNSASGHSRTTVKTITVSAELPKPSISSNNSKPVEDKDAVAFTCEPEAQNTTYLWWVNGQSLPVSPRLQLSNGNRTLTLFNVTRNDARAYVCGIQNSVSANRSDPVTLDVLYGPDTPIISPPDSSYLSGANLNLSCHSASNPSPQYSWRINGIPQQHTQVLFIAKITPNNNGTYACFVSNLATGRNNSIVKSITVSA


Experiments:
[1] = molecular target: T1, NCA expressed at the surface of …; experiment: FACS on MC38/NCA+ cells and granulocytes
[2] = molecular target: T2, extracellular region of the human …; experiment: SPR, BIACORE 3000; VHH captured on immobilised anti-c-myc mAb 9E10, CEA injected
Protocol: The VHH (in buffer: 10 mM HEPES; 150 mM NaCl; 3 mM EDTA; 0.005% surfactant P20) is then injected and then a range of CEA or CD16 is injected on the VHH immobilised on the 9E10.

[3] = molecular target: T1, NCA expressed at the surface of …; experiment: FACS on cells, detection by 9E10 anti-c-myc then anti-mouse IgG-FITC
Protocol: At each step, the samples are incubated for 45 min, 4° C., in the dark. Between each reaction, a washing is carried out with 2 ml of PBS/1% BSA. At the last step, the cells are taken up with 0.5 ml of PBS.

[4] = molecular target: extracellular region of human recombinant (CD16B) receptor FcγRIIIB (human) (UniProt O75015); experiment: SPR, BIACORE 3000; VHH captured on immobilised anti-c-myc mAb 9E10, CD16 injected
Chain of extracellular region of human recombinant (CD16B) receptor FcγRIIIB (human) (O75015 17-200 limits assumed): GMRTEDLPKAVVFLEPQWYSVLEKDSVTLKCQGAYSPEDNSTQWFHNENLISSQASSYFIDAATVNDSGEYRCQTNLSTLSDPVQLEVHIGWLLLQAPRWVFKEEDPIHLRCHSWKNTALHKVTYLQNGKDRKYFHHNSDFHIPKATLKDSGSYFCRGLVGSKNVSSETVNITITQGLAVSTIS

| Binder | binding result [1] | Ka [2] [M⁻¹] | Kd [2] [nM] | koff [2] [s⁻¹] | kon [2] [M⁻¹ s⁻¹] | binding result [3] | Ka [4] [M⁻¹] | Kd [4] [nM] | koff [4] [s⁻¹] | kon [4] [M⁻¹ s⁻¹] |
| --- | --- | --- | --- | --- | --- | --- | --- | --- | --- | --- |
| Anti-CEA 43 VHH (VHH, Purified from E. coli periplasm; c-myc tag recognised by mAb 9E10; also called anti-CEA VHH clone 43) VHH: EVQLVESGGGLVQAGGSLTLSCTSSTLTFTPYRMGWYRQTPGKQRDLVADISPGDGSTKNYAGFAQGRFTISRDNIKNTVYLQMNDLKPEDTAVYYCNTYVAFVGRARTWGQGTQVTVTS | no binding (tested: 1 to 5 µg/ml) | 9.72e+07 | 10.3 | 0.00183 | 178000 | – | – | – | – | – |
| Anti-CEA 17 VHH (VHH, also called VHH CEA 17; anti-CEA VHH clone 17) VHH: EVQLVESGGGFVQAGESLTLSCTSSTLTFTPYRMAWYRQAPGKQRDLVADISSGDGRTTNYADFAKGRFTISRDNIKNTVFLRMTNLKPEDTAVYYCNTFVSFVGIARSWGQGTQVTVSS | – | – | – | – | – | no binding | – | – | – | – |
| Anti-CD16 c21 VHH (VHH) VHH: EVQLVESGGELVQAGGSLRLSCAASGLTFSSYNMGWFRRAPGKEREFVASITWSGRDTFYADSVKGRFTISRDNAKNTVYLQMSSLKPEDTAVYYCAANPWPVAAPRSGTYWGQGTQVTVSS | – | – | – | – | – | – | 1.03e+08 | 9.7 | 0.00279 | 286000 |
| Anti-CD16 c13 VHH (VHH) VHH: EVQLVESGGGLVQPGGSLRLSCSFPGSIFSLTMGWYRQAPGKERELVTSATPGGDTNYADFVKGRFTISRDNARSIIYLQMNSLKPEDTAVYYCYARTRNWGTVWGQGTQVTVSS | – | – | – | – | – | – | 9.4e+06 | 101 | 0.00567 | 53000 |
| Anti-CEA 3 VHH (VHH, Purified from E. coli periplasm; c-myc tag recognised by mAb 9E10; also called anti-CEA VHH clone 3) VHH: EVQLVESGGGLVQAGGSLRLSCTSSTVTFTPYQMGWYRQAPGKQRALVADISTGGSRTNYADFAKGRFTISRDDVKNTVYLQMNNLKPEDTAVYYCNTYYAMIGHARNWGQGTQVTVSS | – | 7.38e+07 | 13.6 | 0.00168 | 124000 | – | – | – | – | – |
| Anti-CD16 c72 VHH (VHH) VHH: EVQLVESGGGLVQPGGSLTLSCVAAGSIFTFAMSWYRQAPRKERELVARIGTDDETMYKDSVKGRFTISRDNVKRTAGLQMNNLKPEDTAVYYCNARTDYRDWTVREYWGQGTQVTVSS | – | – | – | – | – | – | 1.06e+07 | 94.6 | 0.0037 | 39000 |
| Anti-CEA 25 VHH (VHH, Purified from E. coli periplasm; c-myc tag recognised by mAb 9E10; also called anti-CEA VHH clone 25) VHH: EVQLVESGGGLVQAGDSLTLTCTSPTLTFTPYRMGWYRQAPGKQRDLVADISGGDGRTTNYADFAKGRFTISRDNVKNAVYLQMNNLKPEDTAIYYCNTYVAIVGHARSWGQGTQVTVSS | no binding (tested: 1 to 5 µg/ml) | 3.15e+07 | 31.7 | 0.0036 | 113000 | – | – | – | – | – |
